The source of these data is patent publication US20100048468A1 (Amgen, published 2010).

Numbering of substitutions follows the chain as printed. Non-standard residues stand in square brackets, D forms with d. Primed or numbered codes have the meaning given here. No end group written: not given here. mPEG40k‑branched = branched 40 kDa PEG (2 × 20 kDa) maleimide, attached to the Cys thiol; branched PEG 40 kDa″ = 40 kDa branched poly(ethylene glycol); Aib′ = alpha aminobutyric acid (source's wording)

The chains are these.
T1: mouse GLP-1 receptor (mouse, UniProt O35659 22-463)
T1 sequence (looked up): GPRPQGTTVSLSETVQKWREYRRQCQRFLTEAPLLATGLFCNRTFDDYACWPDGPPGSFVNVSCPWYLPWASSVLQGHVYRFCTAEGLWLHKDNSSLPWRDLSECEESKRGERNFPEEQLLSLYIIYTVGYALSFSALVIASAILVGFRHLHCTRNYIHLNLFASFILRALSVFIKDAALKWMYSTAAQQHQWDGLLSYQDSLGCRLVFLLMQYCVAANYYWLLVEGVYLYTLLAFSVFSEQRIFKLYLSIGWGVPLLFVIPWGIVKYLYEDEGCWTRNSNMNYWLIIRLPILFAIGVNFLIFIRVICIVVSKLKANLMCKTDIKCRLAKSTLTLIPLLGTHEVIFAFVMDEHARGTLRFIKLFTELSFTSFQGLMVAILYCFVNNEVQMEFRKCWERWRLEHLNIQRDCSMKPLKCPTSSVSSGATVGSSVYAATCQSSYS

B1: [Gly8]cyclo[21-26] GLP1(7-37)-amide (SEQ ID NO: 42) (peptide)
peptide: HGEGTFTSDVSSYLEGQAAKEFIAWLVKGRG
modifications: side-chain cyclic lactam between positions 21 (Glu) and 26 (Lys) (GLP-1 numbering; residues 15 and 20 of the entry); C-terminal amide
B2: [Gly8]GLP1(7-37) cyc[Glu15-Lys19] (SEQ ID NO: 36) (peptide)
peptide: B1 peptide with A19K
modifications: side-chain cyclic lactam between Glu15 and Lys19 (counted on the peptide; GLP-1 positions 21 and 25); C-terminal amide
B3: [Gly8]GLP1(7-37) cyclo[Glu18-Lys22] (SEQ ID NO: 39) (peptide)
peptide: B1 peptide with A18E, F22K
modifications: side-chain cyclic lactam between Glu18 and Lys22 (counted on the peptide; GLP-1 positions 24 and 28); C-terminal amide
B4: H[bAla]EGT FTSDVSSYLEGQAAKEFIAWLVKGRGCSGG (SEQ ID NO: 12) (peptide)
peptide: HXEGTFTSDVSSYLEGQAAKEFIAWLVKGRGCSGG
modifications: bAla (beta aminopropionic acid) at position 8 (GLP-1 numbering; residue 2 of the entry)

For the first assay, the target named is T2, human GLP-1 receptor (human, UniProt P43220 24-463).
T2 construct: whole, on cells
Briefly: 125I-GLP-1 displacement, membranes of CHOK1 cells expressing human GLP-1 receptor. As for the experimental part:
Membrane Preparation. […] Cells were sedimented at 1500 rpm for 10 minutes. The resulting pellets were homogenized in 15 mls of ice cold sucrose buffer (25 mM Tris-HCl, 0.32 M Sucrose, 0.25 g/L, sodium azide, pH 7.4) with a motorized, glass fitted, Teflon homogenizer. The homogenate was centrifuged at 48,000×g at 4° C. for 10 minutes, resuspended in 25 ml assay buffer (50 mM Tris-HCl, 5 mM MgCl₂, 10 mg/ml protease-free BSA, 0.1 mg/ml STI, and 0.1 mg/ml Pefabloc, pH 7.4) with a Tissue-Tearor (Biospec Products), then centrifuged again at 48,000×g for 10 minutes. The pellets were homogenized for a third time in 15 ml assay buffer using the Tissue-Tearor and again centrifuged at 48,000×g for 10 minutes. The resulting pellet was resuspended in assay buffer at a wet weight concentration of 4 mg/ml.
Ligand Binding Assay. Binding assays were performed in 96-well U-bottom plates. […] The reaction was terminated by rapid filtration through Unfilter-96 GF/C glass fiber filter plates (FilterMate 196 Packard Harvester, PerkinElmer, Shelton, Conn.) pre-soaked in 0.5% polyethylenimine, followed by three washes with 300 μl of cold 50 mM Tris-HCl, pH 7.4. Bound radioactivity was determined using a TopCount microplate scintillation and luminescence counter (Packard Instrument Company, PerkinElmer, Shelton, Conn.). Nonlinear regression analyses of resulting concentration curves were performed using GraphPad Prism (GraphPad Software, Inc., San Diego, Calif.). […]
As for HGEGTFTSDVSSYLE[Aib′]QAAKEFIAWLVKGRGC(mPEG‑maleimide 20 kDa)SG-NH2 [cgGLP-24 cgGLP-27, mgGLP-22, mgGLP-33 & mgGLP-27 (SEQ ID NO: 22 + 20k PEG)], the IC50 (usually the concentration that gives 50% inhibition) is 47 nM. This lies in the double-digit nanomolar range.
The same measure, in the same setting: under HGEGTFTSDVSSYLE[Aib′]QAAKEFIAWLVKGRGC(mPEG40k‑branched)SG-NH2 [cgGLP-29 (SEQ ID NO: 22 + 40k branched PEG)] stands 800 nM; under HGEGTFTSDVSSYLE[Aib′]QAAKEFIAWLVKGRGC(mPEG‑maleimide 20 kDa)SGG-NH2 [mgGLP-15 (SEQ ID NO: 24 + 20k PEG)], 100 nM; under HGEGTFTSDVSSYLE[Aib′]QAAKEFIAWLVKGRGC(mPEG‑maleimide 20 kDa)SG (also called cgGLP-19) [mgGLP19 & cgGLP- (SEQ ID NO: 21 + 20k PEG)], 230 nM.
On the same count and under the same terms, under HGEGTFTSDVSSYLE[Aib′]QAAKEFIAWLVKGRGC(mPEG‑maleimide 5 kDa)SG-NH2 (also called cgGLP-25) [cpGLP-25 (SEQ ID NO: 22 + 5k PEG)] stands 15 nM.

In another assay the target is T2, human GLP-1 receptor. Briefly: cell-based or functional assay.
Turning to B1, the EC50 human is 0.6 nM.
The same measure, in the same setting: under B2 stands 0.15 nM.
The same measure, in the same setting: under B3 stands 0.8 nM.

The next assay deals with T1, mouse GLP-1 receptor. Briefly: cell-based or functional assay.
The molecule HGEGTFTSDVSSYLEGQAAKEFIAWLVKGRGCSG [HGEGTFTSDVSSYLEGQAAKEFIAWLVKGRGCSG (SEQ ID NO: 10)] returned an EC50 mouse of 0.32 nM.
The molecule HGEGTFTSDVSSYLEGQAAKEFIAWLVKGRGC(PEG 30 kDa)SG [cgGLP-16 (SEQ ID NO: 10 + 30k PEG)] had an EC50 mouse of 4 nM.
Turning to HGEGTFTSDVSSYLEGQAAKEFIAWLVKGRGC(branched PEG 40 kDa″)SG [cgGLP-5 (SEQ ID NO: 10 + 40k branched PEG)], the EC50 mouse is 1.5 nM.
Still for that read-out and setting: as for HGEGTFTSDVSSYLEGQAAKEFIAWLVKGRGC(PEG 30 kDa)SG [cgGLP-8 (SEQ ID NO: 10 + 30k PEG)], the figure is 3 nM.

In another assay the target is T2, human GLP-1 receptor. Briefly: cell-based or functional assay. This is another data set of the same source.
HGEGTFTSDVSSYLEGQAAKEFIAWLVKGRGCSG [HGEGTFTSDVSSYLEGQAAKEFIAWLVKGRGCSG (SEQ ID NO: 10)] showed an EC50 human of 0.05 nM.
Same read-out and setting: as for HGEGTFTSDVSSYLEGQAAKEFIAWLVKGRGC(PEG 30 kDa)SG [cgGLP-16 (SEQ ID NO: 10 + 30k PEG)], the figure is 0.39 nM; as for HGEGTFTSDVSSYLEGQAAKEFIAWLVKGRGC(PEG 30 kDa)SG [cgGLP-8 (SEQ ID NO: 10 + 30k PEG)], 0.4 nM; as for B4, above 100 nM.

The target of a further assay is T1, mouse GLP-1 receptor. Briefly: cell-based or functional assay. This is another data set of the same source.
Molecule HGEGTFTSDVSSYLE[Aib′]QAAKEFIAWLVKGRGC(mPEG‑maleimide 20 kDa)SG-NH2 [cgGLP-24 cgGLP-27, mgGLP-22, mgGLP-33 & mgGLP-27 (SEQ ID NO: 22 + 20k PEG)] yielded an EC50 mouse of 0.84 nM.
Still for that read-out and setting: as for HGEGTFTSDVSSYLE[Aib′]QAAKEFIAWLVKGRGC(mPEG40k‑branched)SG-NH2 [cgGLP-29 (SEQ ID NO: 22 + 40k branched PEG)], the figure is 1 nM; as for HGEGTFTSDVSSYLE[Aib′]QAAKEFIAWLVKGRGC(mPEG‑maleimide 20 kDa)SGG-NH2 [mgGLP-15 (SEQ ID NO: 24 + 20k PEG)], 1.8 nM.
On the same count and under the same terms, as for HGEGTFTSDVSSYLE[Aib′]QAAKEFIAWLVKGRGC(mPEG‑maleimide 20 kDa)SG (also called cgGLP-19) [mgGLP19 & cgGLP- (SEQ ID NO: 21 + 20k PEG)], the figure is 4 nM.
The same measure, in the same setting: under HGEGTFTSDVSSYLE[Aib′]QAAKEFIAWLVKGRGC(mPEG‑maleimide 5 kDa)SG-NH2 (also called cgGLP-25) [cpGLP-25 (SEQ ID NO: 22 + 5k PEG)] stands 0.9 nM.

The next assay deals with T2, human GLP-1 receptor. Briefly: cell-based or functional assay. This is another data set of the same source.
For the molecule HGEGTFTSDVSSYLE[Aib′]QAAKEFIAWLVKGRGC(mPEG‑maleimide 20 kDa)SG-NH2 [cgGLP-24 cgGLP-27, mgGLP-22, mgGLP-33 & mgGLP-27 (SEQ ID NO: 22 + 20k PEG)], the EC50 human came out at 0.1 nM.
On the same count and under the same terms, under HGEGTFTSDVSSYLE[Aib′]QAAKEFIAWLVKGRGC(mPEG40k‑branched)SG-NH2 [cgGLP-29 (SEQ ID NO: 22 + 40k branched PEG)] stands 0.15 nM.
On the same count and under the same terms, as for HGEGTFTSDVSSYLE[Aib′]QAAKEFIAWLVKGRGC(mPEG‑maleimide 20 kDa)SGG-NH2 [mgGLP-15 (SEQ ID NO: 24 + 20k PEG)], the figure is 0.2 nM; as for HGEGTFTSDVSSYLE[Aib′]QAAKEFIAWLVKGRGC(mPEG‑maleimide 20 kDa)SG (also called cgGLP-19) [mgGLP19 & cgGLP- (SEQ ID NO: 21 + 20k PEG)], 0.00032 nM; as for HGEGTFTSDVSSYLE[Aib′]QAAKEFIAWLVKGRGC(mPEG‑maleimide 5 kDa)SG-NH2 (also called cgGLP-25) [cpGLP-25 (SEQ ID NO: 22 + 5k PEG)], 0.039 nM.
